Consider one molecule from PMC10580122, “Human IL-35 Inhibits the Bioactivity of IL-12 and Its Interaction with IL-12Rβ2” (ImmunoHorizons, 2023).

The target of this assay is T1, recombinant human IL-12Rβ1 (human, UniProt P42701 24-545).
T1 construct: human IL-12 receptor subunit beta-1, recombinant; also called rIL-12Rβ1; source: bought: Sino Biological (11674-H08H)
Put plainly: ELISA; solid-phase binding assay; wells coated with rIL-12Rβ1, rIL-12Rβ2 or no IL-12R chain; IL-12 or IL-12p40 monomer alone or with IL-35, each cytokine fixed at 5 μg/ml; overnight at 4°C; detected with anti-IL-12 or anti-IL-12p40 and HRP. The settings on record: both partners purified. (In general: An ELISA detects its analyte on a solid surface through an enzyme-linked reagent.)

B1: Human IL-12 (complex)
chain 1: RNLPVATPDPGMFPCLHHSQNLLRAVSNMLQKARQTLEFYPCTSEEIDHEDITKDKTSTVEACLPLELTKNESCLNSRETSFITNGSCLASRKTSFMMALCLSSIYEDLKMYQVEFKTMNAKLLMDPKRQIFLDQNMLAVIDELMQALNFNSETVPQKSSLEEPDFYKTKIKLCILLHAFRIRAVTIDRVMSYLNAS
chain 2: IWELKKDVYVVELDWYPDAPGEMVVLTCDTPEEDGITWTLDQSSEVLGSGKTLTIQVKEFGDAGQYTCHKGGEVLSHSLLLLHKKEDGIWSTDILKDQKEPKNKTFLRCEAKNYSGRFTCWWLTTISTDLTFSVKSSRGSSDPQGVTCGAATLSAERVRGDNKEYEYSVECQEDSACPAAEESLPIEVMVDAVHKLKYENYTSSFFIRDIIKPDPPKNLQLKPLKNSRQVEVSWEYPDTWSTPHSYFSLTFCVQVQGKSKREKKDRVFTDKTSATVICRKNASISVRAQDRYYSSSWSEWASVPCS
notes: p35 subunit of human IL-12 (IL-12p35); linked to p40 via a disulfide bond; p40 subunit of human IL-12 (IL-12p40); linked to p35 via a disulfide bond; Bought heterodimer of p35 and p40; also called exogenous human IL-12; source: bought: PeproTech (200-12H)
Regarding B1, the binding result was “binds”.
